Patent publication US20200361992A1 (PROTAGONIST THERAPEUTICS, published 2020)
Starred links: 1 amine or outer side, 2 acyl side, 3 side chain; linkers in the order of their positions; H or OH if unused. Positions of bridges follow the written chain, without caps; N, C: chain ends. Non-standard residues stand in square brackets, D forms with d. Groups on a side chain read outwards from the residue. Primed or numbered codes have the meaning given here. *: point of attachment. PEG4′ = bifunctional PEG linker with 4 polyethylene glycol units; PEG12 = NCCOCCOCCOCCOCCOCCOCCOCCOCCOCCOCCOCCOCCC(=O)O; Phe(4-tBu) = CC(C)(C)c1ccc(C[C@H](N)C(=O)O)cc1; Dip = N[C@H](C(=O)O)C(c1ccccc1)c1ccccc1; γGlu = O=C(O)[C@H](CCC(=O)[*:2])N[*:1]; Palmitoyl = CCCCCCCCCCCCCCCC(=O)*; β3hF = N[C@H](CC(=O)O)Cc1ccccc1; Isovaleryl = CC(C)CC(=O)*; hSer = N[C@@H](CCO)C(=O)O; Nle = CCCC[C@H](N)C(=O)O; PEG1′ = not defined here; PEG2′ = not defined here; PEG8′ = not defined here; dDap = NC[C@@H](N)C(=O)O; Dap = NC[C@H](N)C(=O)O; Npc = nipecotic acid; Ahx = NCCCCCC(=O)O

B1: Compd ID 153 (peptide)
peptide: DTHXPCIKXKKC
modifications: Isovaleric acid-DTH-[Dpa]-PCI-[(D)Lys-Peg11*]-[b-hPhe]-[Lys(Peg11-Palm)]-[(D)Lys-Peg11*]-C-NH2 (*PEG11-OMe)
B2: Compd ID 166 (peptide)
peptide: DTHXPCIKXKKC
modifications: Isovaleric acid-DTH-[Dpa]-PCI-[(D)Lys-Peg11*]-[b-hPhe]-[Lys(Ahx-Palm)]-[(D)Lys-Peg11*]-C-NH2 (*PEG11-OMe)
B3: Compd ID 155 (peptide)
peptide: DTHXPCIKXKKC
modifications: Isovaleric acid-DTH-[Dpa]-PCI-[(D)Lys]-[b-hPhe]-[Lys(Peg11-Octane)]-[(D)Lys]-C-NH2
B4: Compd ID 157 (peptide)
peptide: DTHXPCIKXKKC
modifications: Isovaleric acid-DTH-[Dpa]-PCI-[(D)Lys]-[b-hPhe]-[Lys-Peg11*]-[(D)Lys]-C-NH2 (*PEG11-OMe)
B5: Compd ID 159 (peptide)
peptide: DTHXPCIKXKKC
modifications: Isovaleric acid-DTH-[Dpa]-PCI-[(D)Lys-Ac]-[b-hPhe]-[Lys(Peg11-Palm)]-[(D)Lys-Ac]-C-NH2
B6: Compd ID 151 (peptide)
peptide: DTHXPCIKXKXX
modifications: Isovaleric acid-DTH-[Dpa]-PCI-[(D)Lys]-[b-hPhe]-[Lys(Ahx-Palm)]-[Dap]-[N-Me-Cys]-NH2
B7: Compd ID 158 (peptide)
peptide: DTHXPCIKXKKC
modifications: Isovaleric acid-DTH-[Dpa]-PCI-[(D)Lys]-[b-hPhe]-[Lys(IsoGlu-Palm)]-[(D)Lys]-C-NH2
B8: Compd ID 156 (peptide)
peptide: DTHXPCIKXKKC
modifications: Isovaleric acid-DTH-[Dpa]-PCI-[(D)Lys]-[b-hPhe]-[Lys(Peg11-Lauryl)]-[(D)Lys]-C-NH2

Molecular target: T1, human ferroportin (SLC40A1) fused with GFP, stably expressed in HEK293 cells (human, UniProt Q9NP59 1-571)
T1 sequence (looked up): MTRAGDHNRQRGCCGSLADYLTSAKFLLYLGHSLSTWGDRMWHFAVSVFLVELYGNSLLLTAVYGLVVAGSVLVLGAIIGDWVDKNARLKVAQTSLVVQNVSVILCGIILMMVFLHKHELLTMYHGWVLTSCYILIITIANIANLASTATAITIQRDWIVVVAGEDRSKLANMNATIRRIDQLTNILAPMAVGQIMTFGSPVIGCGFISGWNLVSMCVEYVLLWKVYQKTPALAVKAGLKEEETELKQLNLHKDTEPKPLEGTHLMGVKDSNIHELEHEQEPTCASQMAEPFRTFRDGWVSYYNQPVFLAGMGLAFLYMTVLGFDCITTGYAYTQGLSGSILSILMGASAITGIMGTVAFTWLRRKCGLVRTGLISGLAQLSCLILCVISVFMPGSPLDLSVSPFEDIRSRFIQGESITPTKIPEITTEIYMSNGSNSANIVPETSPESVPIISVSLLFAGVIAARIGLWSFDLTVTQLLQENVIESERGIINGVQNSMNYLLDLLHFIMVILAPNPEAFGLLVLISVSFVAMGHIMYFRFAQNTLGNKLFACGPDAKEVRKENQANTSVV
Assay: cell-based or functional assay

Row | Binder | FPN IC50 [nM]
1 | Isovaleryl-DTH[Dip]PCI[dA][β3hF]K([PEG12-Palmitoyl])[dK]C-NH2 (disulfide 6-12 (inferred)) [Compd ID 146] | 11
2 | Isovaleryl-DTHFPCI[dK]FK([PEG4′-Palmitoyl])C-NH2 (disulfide 6-11 (inferred)) [Compd ID 22] | 17
3 | Isovaleryl-DTH[Dip]PCI[β3hF]K([PEG12-Palmitoyl])[dK]C-NH2 (disulfide 6-11 (inferred)) [Compd ID 148] | 12
4 | Isovaleryl-DTHFPCI[Nle]FK([PEG12-Palmitoyl])C-NH2 (disulfide 6-11 (inferred)) [Compd ID 15] | 2
5 | Isovaleryl-DTH[Dip][Npc]CI[dK][Phe(4-tBu)]K([PEG12-Palmitoyl])[dK]C-NH2 (disulfide 6-12 (inferred)) [Compd ID 149] | 17
6 | DTHFPCIXFKC (Isovaleric acid-DTHFPCI-[Orn]-[Phe]-Lys[PEG11-Palm]-C-NH2) [Compd ID 11] | 4
7 | DTHFPCIKFKPC (Isovaleric acid-DTHFPC(SH)I-[Lys]-[Phe]-Lys[PEG11-Palm]-Pro-C(SH)-NH2) [Compd ID 67] | 13
8 | Isovaleryl-DTHFPCI[dK]FK([PEG2′-γGlu-Palmitoyl])C-NH2 (disulfide 6-11 (inferred)) [Compd ID 26] | 13
9 | Isovaleryl-DTH[Dip][Npc]CI[dK][Phe(4-tBu)]K([PEG12-Palmitoyl])C[dK]-NH2 (disulfide 6-11 (inferred)) [Compd ID 150] | 22
10 | Isovaleryl-DTH[Dip]PCI[dK][β3hF][Dap]([dDap-Palmitoyl])C-NH2 (disulfide 6-11 (inferred)) [Compd ID 164] | 6
11 | Isovaleryl-DTH[Dip]PCI[dK][β3hF][Dap]([Dap-Palmitoyl])C-NH2 (disulfide 6-11 (inferred)) [Compd ID 162] | 8
12 | Isovaleryl-DTHFPCI[dK]FK([PEG8′-Palmitoyl])C-NH2 (disulfide 6-11 (inferred)) [Compd ID 21] | 30
13 | DTHFPCIKFKC (Isovaleric acid-DTHFPC(SH)I-[Lys]-[Phe]-Lys[PEG11-Palm]-C(SH)-NH2) [Compd ID 69] | 9
14 | DTHXPCIKXKC (Isovaleric acid-DTH-[Dpa]-PCI-[(D)Lys]-[b-hPhe]-[Lys(dDap-Palm)]-C-NH2) [Compd ID 161] | 10
15 | Isovaleryl-DTH[Dip]PCII[β3hF]K([PEG12-Palmitoyl])[dK]C-NH2 (disulfide 6-12 (inferred)) [Compd ID 147] | 24
16 | B1 | 19
17 | Isovaleryl-DTHFPCI[dK]FK(Palmitoyl)C-NH2 (disulfide 6-11 (inferred)) [Compd ID 30] | 31
18 | Isovaleryl-DTHFPCIQFK([PEG12-Palmitoyl])C-NH2 (disulfide 6-11 (inferred)) [Compd ID 13] | 4
19 | DTHFPCIKFKPRSKGCK (Isovaleric acid-DTHFPCIKF-Lys[PEG11-Palm]-PRSKGCK-NH2) [Ref. Compd 1] | 30
20 | B2 | 6
21 | Isovaleryl-DTHFPCI[dK]FK([PEG2′-Palmitoyl])C-NH2 (disulfide 6-11 (inferred)) [Compd ID 23] | 40
22 | Isovaleryl-DTHFPCI[dK]FK([PEG12-Palmitoyl])PC-NH2 (disulfide 6-12 (inferred)) [Compd ID 70] | 5
23 | DTHXPCIKFKKC (Isovaleric Acid-D-T-H-[Dpa]-(D)Pro-C-I-(D)Lys-F-[Lys_Peg11_Palm]-(D)Lys-C-NH2) [Compd ID 167] | 81
24 | B3 | 279

Row | Binder | FPN IC50 [nM]
25 | Isovaleryl-DTHFPCI[dK]FK([PEG12-Palmitoyl])C-NH2 (cysteine pairing not given here) [Compd ID 68] | 12
26 | Isovaleryl-DTHFPCI[hSer]FK([PEG12-Palmitoyl])C-NH2 (disulfide 6-11 (inferred)) [Compd ID 12] | 2
27 | Isovaleryl-DTHFPCI[dK]FK([PEG1′-Palmitoyl])C-NH2 (disulfide 6-11 (inferred)) [Compd ID 24] | 17
28 | B4 | 347
29 | Isovaleryl-DTHFPCI[dK]FK([PEG12-Palmitoyl])PRSKC-NH2 (disulfide 6-15 (inferred)) [Compd ID 73] | 11
30 | Isovaleryl-DTHFPCIKWK([PEG12-Palmitoyl])C-NH2 (disulfide 6-11 (inferred)) [Compd ID 20] | 4
31 | DTHXPCIKFKKC (Isovaleric_Acid-D-T-H-bhPhe-(D)Pro-C-I-(D)Lys-F-[Lys_Peg11_Palm]-(D)Lys-C-NH2) [Compd ID 168] | 54
32 | Isovaleryl-DTHFPCI[dK]FK([PEG12-Palmitoyl])PRC-NH2 (disulfide 6-13 (inferred)) [Compd ID 71] | 8
33 | Isovaleryl-DTHFPCIK(Ac)FK([PEG12-Palmitoyl])C-NH2 (disulfide 6-11 (inferred)) [Compd ID 14] | 3
34 | DTHXPCIKXKKC (Isovaleric acid-DTH-[Dpa]-PCI-[(D)Lys]-[b-hPhe]-[Lys-Peg11]-[(D)Lys]-C-NH2) [Compd ID 154] | 404
35 | Isovaleryl-DTHFPCI[dK]FK([Ahx-Palmitoyl])C-NH2 (disulfide 6-11 (inferred)) [Compd ID 25] | 11
36 | B5 | 4
37 | B6 | 28.5
38 | DTHXPCIKXKKC (Isovaleric acid-DTH-[Dpa]-PCI-[(D)Lys]-[b-hPhe]-[Lys(Ac)]-[(D)Lys]-C-NH2) [Compd ID 152] | 146
39 | DTHFPCIKFKPRSKGC (Isovaleric acid-DTHFPCIKF-Lys[PEG11-Palm]-PRSKGC-NH2) [Compd ID 3] | 16
40 | DTHXPCIKXKC (Isovaleric acid-DTH-[Dpa]-PCI-[(D)Lys]-[b-hPhe]-[Lys(Dap-Palm)]-C-NH2) [Compd ID 160] | 4
41 | B7 | 6
42 | B8 | 125
43 | Isovaleryl-DTHFPCI[dK]FK([γGlu-PEG2′-Palmitoyl])C-NH2 (disulfide 6-11 (inferred)) [Compd ID 28] | 23
44 | DTHXPCIKXKKC (Isovaleric acid-DTH-[Dpa]-PCI-[(D)Lys]-[b-hPhe]-[Lys(Ahx-Palm)]-[(D)Lys]-C-NH2) [Compd ID 165] | 6
45 | Isovaleryl-DTHFPCI[dK]FK([γGlu-Palmitoyl])C-NH2 (disulfide 6-11 (inferred)) [Compd ID 27] | 35
46 | Isovaleryl-DTHFPCI[dK]FK([PEG12-Palmitoyl])PRSC-NH2 (disulfide 6-14 (inferred)) [Compd ID 72] | 12
47 | Isovaleryl-DTHFPCI[dK]FK([PEG2′-Ahx-Palmitoyl])C-NH2 (disulfide 6-11 (inferred)) [Compd ID 29] | 30
48 | Isovaleryl-DTH[Dip]PCI[dK][β3hF][Dap]([dDap-Palmitoyl])C-NH2 (disulfide 6-11 (inferred)) [Compd ID 163] | 7
